T1: Rat ROBO2 on cells (rat, UniProt Q7TPD3 22-1469 (mouse entry))
T1 chain: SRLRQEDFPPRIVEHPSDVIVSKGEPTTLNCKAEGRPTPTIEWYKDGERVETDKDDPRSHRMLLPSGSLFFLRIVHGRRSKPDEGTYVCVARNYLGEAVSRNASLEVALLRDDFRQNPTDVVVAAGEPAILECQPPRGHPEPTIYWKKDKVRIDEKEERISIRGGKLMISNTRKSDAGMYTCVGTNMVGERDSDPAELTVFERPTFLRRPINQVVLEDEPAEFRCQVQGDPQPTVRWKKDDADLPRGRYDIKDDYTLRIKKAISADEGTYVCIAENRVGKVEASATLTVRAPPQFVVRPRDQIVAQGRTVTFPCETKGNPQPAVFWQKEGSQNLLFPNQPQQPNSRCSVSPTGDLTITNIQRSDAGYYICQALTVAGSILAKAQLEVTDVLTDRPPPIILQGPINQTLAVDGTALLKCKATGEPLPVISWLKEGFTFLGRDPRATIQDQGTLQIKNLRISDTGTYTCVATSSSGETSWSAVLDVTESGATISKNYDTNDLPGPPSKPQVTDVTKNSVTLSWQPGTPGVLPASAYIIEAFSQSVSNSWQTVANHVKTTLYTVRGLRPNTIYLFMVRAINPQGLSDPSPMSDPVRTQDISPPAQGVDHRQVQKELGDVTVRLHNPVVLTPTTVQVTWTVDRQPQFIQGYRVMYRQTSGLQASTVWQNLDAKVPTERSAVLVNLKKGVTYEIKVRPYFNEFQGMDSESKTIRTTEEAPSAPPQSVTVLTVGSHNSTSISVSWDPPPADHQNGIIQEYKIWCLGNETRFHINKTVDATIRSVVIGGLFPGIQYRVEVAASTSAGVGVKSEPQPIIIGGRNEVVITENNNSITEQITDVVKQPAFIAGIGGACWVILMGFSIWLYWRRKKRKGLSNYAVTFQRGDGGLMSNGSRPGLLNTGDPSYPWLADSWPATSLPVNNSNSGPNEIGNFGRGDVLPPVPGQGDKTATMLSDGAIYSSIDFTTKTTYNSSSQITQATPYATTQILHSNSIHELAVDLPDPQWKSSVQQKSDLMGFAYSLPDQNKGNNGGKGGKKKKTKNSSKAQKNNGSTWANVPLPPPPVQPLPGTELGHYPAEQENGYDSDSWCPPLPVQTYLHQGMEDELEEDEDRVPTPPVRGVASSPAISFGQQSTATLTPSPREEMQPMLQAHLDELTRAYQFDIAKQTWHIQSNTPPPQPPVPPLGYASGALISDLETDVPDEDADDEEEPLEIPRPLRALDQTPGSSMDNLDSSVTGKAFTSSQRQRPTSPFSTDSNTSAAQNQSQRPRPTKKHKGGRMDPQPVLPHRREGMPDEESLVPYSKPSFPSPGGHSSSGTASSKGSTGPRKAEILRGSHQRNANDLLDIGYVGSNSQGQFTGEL


Target: T1, Rat ROBO2 on cells
Experiment: cell-based or functional assay

| Binder | IC50 (nM), SVZa assay [nM] |
| --- | --- |
| 93H2 (antibody, human IgG1, kappa, V domains shown, also called parental 93H2; 93H2 mAb) VH: EVQLVQSGAEVKKPGASVKVSCKASGYTFTGYYMHWVRQAPGQGLEWMGWINPNSGATNFPQKFQGRVTMTRDTSITTAYMDLSRLRSDDTAVYYCARESGDDAFDIWGQGTMVTVSS VL: not shown | 1.69 |
| Abcs20 (antibody, human IgG1, kappa, V domains shown, chain-shuffled IgG) VH: EVQLVQSGAEVKKPGASVKVSCKASGYTFTGYYMHWVRQAPGQGLEWMGWINPKNGDTEFPQKFQGRVTMTRDTSITTAYMDLSRLRSDDTAVYYCARESGDDAFDIWGQGTMVTVSS VL: DIVMTQSPSSLSASVGDRVTITCRASQSISSYLNWYQQKPGKAPKLLIYAASSLQSGVPSRFSGSGSGTDFTLTISSLQPEDFATYYCQQSVGLSFGGGTKVEIKR | 0.47 |
| Abcs25 (antibody, human IgG1, kappa, V domains shown, chain-shuffled IgG) VH: EVQLVQSGAEVKKPGASVKVSCKASGYTFTGYYMHWVRQAPGQGLEWMGWINPKDGDTEFPQKFQGRVTMTRDTSITTAYMDLSRLRSDDTAVYYCARESGDDAFDIWGQGTMVTVSS VL: DIVMTQSPSSLSASVGDRVTITCRASQSISSYLNWYQQKPGKAPKLLIYAASSLQSGVPSRFSGSGSGTDFTLTISSLQPEDFATYYCQQSVGLSFGGGTKVEIKR | 0.31 |
| Abcs35 (antibody, human IgG1, kappa, fully human IgG1; VH of Ab96 with VL of Ab123) heavy: EVQLVQSGAEVKKPGASVKVSCKASGYTFTGYYMHWVRQAPGQGLEWMGWINPKNGDTEFPQKFQGRVTMTRDTSITTAYMDLSRLRSDDTAVYYCARESGDDAFDIWGQGTMVTVSSASTKGPSVFPLAPSSKSTSGGTAALGCLVKDYFPEPVTVSWNSGALTSGVHTFPAVLQSSGLYSLSSVVTVPSSSLGTQTYICNVNHKPSNTKVDKKVEPKSCDKTHTCPPCPAPEAAGAPSVFLFPPKPKDTLMISRTPEVTCVVVDVSHEDPEVKFNWYVDGVEVHNAKTKPREEQYNSTYRVVSVLTVLHQDWLNGKEYKCKVSNKALPAPIEKTISKAKGQPREPQVYTLPPSREEMTKNQVSLTCLVKGFYPSDIAVEWESNGQPENNYKTTPPVLDSDGSFFLYSKLTVDKSRWQQGNVFSCSVMHEALHNHYTQKSLSLSPGK light: DIVMTQSPSSLSASVGDRVTITCRASQSISSYLNWYQQKPGKAPKLLIYAASSLQSGVPSRFSGSGSGTDFTLTISSLQPEDFATYYCQQSVGLFFGGGTKVEIKRTVAAPSVFIFPPSDEQLKSGTASVVCLLNNFYPREAKVQWKVDNALQSGNSQESVTEQDSKDSTYSLSSTLTLSKADYEKHKVYACEVTHQGLSSPVTKSFNRGEC | 0.039 |

Continued, values first:

| IC50 (nM), SVZa assay [nM] | Binder |
| --- | --- |
| 0.41 | CTIR2-16 (antibody, human IgG1, kappa, V domains shown, CDR-shuffled IgG) VH: EVQLVQSGAEVKKPGASVKVSCKASGYTFRGYAMHWVRQAPGQGLEWMGWIDPRTGLTKFPQKFQGRVTMTRDTSITTAYMDLSRLRSDDTAVYYCARESGDDAFDIWGQGTMVTVSS VL: DIVMTQSPSSLSASVGDRVTITCRASQKISSYLNWYQQKPGKAPKLLIYAASSLQYGVPSRFSGSGSGTDFTLTISSLQPEDFATYYCQQSVGLFFGGGTKVEIKR |
| 0.98 | Abcs55 (antibody, human IgG1, kappa, V domains shown, chain-shuffled IgG) VH: EVQLVQSGAEVKKPGASVKVSCKASGYTFTGYYMHWVRQAPGQGLEWMGWINPKDGDTEFPQKFQGRVTMTRDTSITTAYMDLSRLRSDDTAVYYCARESGDDAFDIWGQGTMVTVSS VL: DIVMTQSPSSLSASVGDRVTITCRASQSISSYLNWYQQKPGKAPKLLIYAASSLQYGVPSRFSGSGSGTDFTLTISSLQPEDFATYYCQQSYSTSFGGGTKVEIKR |
| 0.11 | CTIR2-14 (antibody, human IgG1, kappa, V domains shown, CDR-shuffled IgG) VH: EVQLVQSGAEVKKPGASVKVSCKASGYTFRGYAMHWVRQAPGQGLEWMGWIDPRTGLTKFPQKFQGRVTMTRDTSITTAYMDLSRLRSDDTAVYYCARESGDDAFDIWGQGTMVTVSS VL: DIVMTQSPSSLSASVGDRVTITCRASQKISSYLNWYQQKPGKAPKLLIYAASSLQYGVPSRFSGSGSGTDFTLTISSLQPEDFATYYCQQSLELGFGGGTKVEIKR |
| 0.02 | CTIR2-15 (antibody, human IgG1, kappa, V domains shown, CDR-shuffled IgG) VH: EVQLVQSGAEVKKPGASVKVSCKASGYTFRGYAMHWVRQAPGQGLEWMGWIDPRTGLTKFPQKFQGRVTMTRDTSITTAYMDLSRLRSDDTAVYYCARESGDDAFDIWGQGTMVTVSS VL: DIVMTQSPSSLSASVGDRVTITCRASQKISSYLNWYQQKPGKAPKLLIYAASSLQYGVPSRFSGSGSGTDFTLTISSLQPEDFATYYCQQSVGLSFGGGTKVEIKR |
| 0.11 | Abcs40 (antibody, human IgG1, kappa, V domains shown, chain-shuffled IgG) VH: EVQLVQSGAEVKKPGASVKVSCKASGYTFTGYYMHWVRQAPGQGLEWMGWINPKDGDTEFPQKFQGRVTMTRDTSITTAYMDLSRLRSDDTAVYYCARESGDDAFDIWGQGTMVTVSS VL: DIVMTQSPSSLSASVGDRVTITCRASQSISSYLNWYQQKPGKAPKLLIYAASSLQSGVPSRFSGSGSGTDFTLTISSLQPEDFATYYCQQSVGLFFGGGTKVEIKR |

Reference: patent US20200157212A1 (Pfizer, published 2020)
